Measured values from article PMC3079584, “A Cytoplasmic Complex Mediates Specific mRNA Recognition and Localization in Yeast” (PLoS Biology, 2011).

B1: His-She3p (334–425) (domain or fragment, Saccharomyces cerevisiae)
chain: GPLGSMGNSSNNKRRSFYTASPLLSSGSIPKSASPVLPGVKRTASVRKPSSSSSKTNVTHNNDPSTSPTISVPPGVTRTVSSTHKKKGNSMVVHGAQS
notes: it precedes G334 at the N-terminus of the construct
B2: MBP-She3p(334–425)-His (domain or fragment, Saccharomyces cerevisiae, UniProt P38272 334-425, looked up)
chain: GNSSNNKRRSFYTASPLLSSGSIPKSASPVLPGVKRTASVRKPSSSSSKTNVTHNNDPSTSPTISVPPGVTRTVSSTHKKKGNSMVVHGAQS
B3: MBP-She3p(354–425)-His (domain or fragment, Saccharomyces cerevisiae, UniProt P38272 354-425, looked up)
chain: GSIPKSASPVLPGVKRTASVRKPSSSSSKTNVTHNNDPSTSPTISVPPGVTRTVSSTHKKKGNSMVVHGAQS

What was measured:
She2p (wild type) [1] = target: T1, She2p (wild type) (Saccharomyces cerevisiae, UniProt P36068 1-246); experiment: SEC; analytical; She2p, His-She3p C-terminal fragment and RNA (ternary complex formation, Figure 4E); which RNA is not told in the legend; conditions: both partners purified
T1 construct: She2p, Saccharomyces cerevisiae, Gene ID 853728; also called She2p (wt); wild-type She2p
T1 sequence (P36068 whole entry, the tested form may be a part): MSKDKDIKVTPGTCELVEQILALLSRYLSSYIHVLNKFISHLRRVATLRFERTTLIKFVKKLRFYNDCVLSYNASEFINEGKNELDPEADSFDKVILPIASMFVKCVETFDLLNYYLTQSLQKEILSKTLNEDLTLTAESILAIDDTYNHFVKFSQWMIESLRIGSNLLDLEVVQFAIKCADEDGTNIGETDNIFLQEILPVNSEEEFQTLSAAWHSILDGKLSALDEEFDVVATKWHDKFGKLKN

She2p (wild type) [2] = target: T1, She2p (wild type); experiment: pull-down; His-tagged She3p (full length, point mutants, or MBP-She3p fragment-His) on nickel sepharose, no RNA; 7.5–10 µM of each protein, HNMD-buffer (20 mM HEPES pH 7.8, 200 mM NaCl, 2 mM MgCl2, 2 mM DTT) with 30–50 mM imidazole, 30–60 min at 4°C; SDS-PAGE, Coomassie; conditions: both partners purified

Binder	binding result (She2p (wild type) [1])	binding result (She2p (wild type) [2])
B1	binds	
B2		binds
B3		binds
